Laboratory results taken from patent US20030049699A1 (published 2003).

B1: TA-C-fibulin2 (C-terminal part of murine fibulin 2, amino acids 863 to 1195, fused with the transcription activating domain of Gal4) (other, not shown: large carriers)
chain: EGSECVDVNECETGVHRCGEGQLCYNLPGSYRCDCKPGFQRDAFGRTCIDVNECWVSPGRLCQHTCENTPGSYRCSCAAGFLLAADGKHCEDVNECETRRCSQECANIYGSYQCYCRQGYQLAEDGHTCTDIDECAQGAGILCTFRCVNVPGSYQCACPEQGYTMMANGRSCKDLDECALGTHNCSEAETCHNIQGSFRCLRFDCPPNYVRVSQTKCERTTCQDITECQTSPARITHYQLNFQTGLLVPAHIFRIGPAPAFAGDTISLTITKGNEEGYFVTRRLNAYTGVVSLQRSVLEPRDFALDVEMKLWRQGSVTTFLAKMYIFFTTFAP
notes: also called product of plasmid TA-C-FIB2
B3: TA-C-mbp1 (C-terminal part of murine MBP1 fused with the transcription activating domain of Gal4) (other, not shown: large carriers)
chain: CTCPDGYRKIGPECVDIDECRYRYCQHRCVNLPGSFRCQCEPGFQLGPNNRSCVDVNECDMGAPCEQRCFNSYGTFLCRCNQGYELHRDGFSCSDIDECGYSSYLCQYRCVNEPGRFSCHCPQGYQLLATRLCQDIDECETGAHQCSEAQTCVNFHGGYRCVDTNRCVEPYVQVSDNRCLCPASNPLCREQPSSIVHRYMSITSERSVPADVFQIQATSVYPGAYNAFQIRSGNTQGDFYIRQINNVSAMLVLARPVTGPREYVLDLEMVTMNSLMSYRASSVLRLTVFVGAYTF
notes: Library clone from mouse embryo cDNA library pPC67; also called product of plasmid TA-C-MBP1
B4: DB-Fos (fusion protein between the DNA-binding domain of the Gal4 protein and a fragment of the human Fos protein, amino acids 132 to 211) (other, S. cerevisiae;human, UniProt P04386 1-147, looked up)
chain: MKLLSSIEQACDICRLKKLKCSKEKPKCAKCLKNNWECRYSPKTKRSPLTRAHLTEVESRLERLEQLFLLIFPREDLDMILKMDSLQDIKALLTGLFVQDNVNKDAVTDRLASVETDMPLTLRQHRISATSSSEESSNKGQRQLTVSLSPEEEEKRRIRRERNKMAAAKCRNRRRELTDTLQAETDQLEDEKSALQTEIANLLKEKEKLEFILAAHRPACKIPDDLG
notes: Control fusion in the yeast two-hybrid test; also called DE-Fos; pPC76 product

How the values were obtained:
[1] = target: T1, DB-wt (fragment 73-393 of wild-type human p53 fused with the DNA-binding domain of Gal4) (S. cerevisiae; human, UniProt P04386 1-147; P04637 73-393); assay: yeast two-hybrid, strain YCM17, URA3 and LacZ reporters
T1 construct: Yeast two-hybrid fusion; also called 73-393 wt in pPC97
Procedure: (§1) After the cotransformation, the various clones obtained were tested for the phenotypes associated with the URA3 and LacZ genes.

[2] = target: T2, DB-C-mbp1 (C-mbp1 fused with the DNA-binding domain of Gal4) (S. cerevisiae; murine, UniProt P04386 1-147); assay: yeast two-hybrid, strain PCY2, LacZ reporter
T2 construct: also called DB-C-mbpl; product of plasmid DB-C-MBP1

[3] = target: T3, DB-C-fibulin2 (C-fibulin2 fused with the DNA-binding domain of Gal4) (S. cerevisiae; murine, UniProt P04386 1-147, limits assumed); assay: yeast two-hybrid, strain PCY2, LacZ reporter
T3 construct: also called product of plasmid DB-C-FIB2

[4] = target: B4; assay: yeast two-hybrid, strain YCM17, URA3 and LacZ reporters
Procedure: as §1

[5] = target: T4, DB protein (DNA-binding domain of Gal4 alone, plasmid pPC97) (S. cerevisiae, UniProt P04386 1-147); assay: as above
T4 construct: Empty-vector control of the two-hybrid tests
Procedure: as §1

[6] = target: B3; assay: as above
Procedure: as §1

[7] = target: B1; assay: as above
Procedure: as §1

**Q.** Does B1 bind [1]?
**A.** Result: no binding

B2: TA (transcription activating domain of Gal4 alone, plasmid pPC86) (other, S. cerevisiae, UniProt P04386 768-881, looked up)
chain: ANFNQSGNIADSSLSFTFTNSSNGPNLITTQTNSQALSQPIASSNVHDNFMNNEITASKIDDGNNSKPLSPGWTDQTAYNAFGITTGMFNTTTMDDVYNYLFDDEDTPPNPKKE
notes: Empty-vector control of the two-hybrid tests
**Q.** Does B2 bind [2]?
**A.** Result: no binding

**Q.** Does B2 bind [3]?
**A.** Result: no binding

**Q.** Does B2 bind [1]?
**A.** Result: no binding

**Q.** Does B2 bind [4]?
**A.** Result: no binding

**Q.** Does B2 bind [5]?
**A.** Result: no binding

**Q.** Does B3 bind [1]?
**A.** Result: no binding

**Q.** Does B4 bind [6]?
**A.** Result: no binding

**Q.** Does B4 bind [7]?
**A.** Result: no binding
